Biological target: human prothrombin (FII) (human, UniProt P00734 44-622, gamma-carboxylated glutamate residues in the Gla domain)
Assay: SPR

B1: Ad1 hexon, on wild-type human adenovirus type 1 virions (natural protein)
chain: ATPSMMPQWSYMHISGQDASEYLSPGLVQFARATETYFSLNNKFRNPTVAPTHDVTTDRSQRLTLRFIPVDREDTAYSYKARFTLAVGDNRVLDMASTYFDIRGVLDRGPTFKPYSGTAYNALAPKGAPNSCEWEQEEPTQEMAEELEDEEEAEEEEAEEEAEAPQADQKVKKTHVYAQAPLAGEKITANGLQIVSDTQTEGNPVFADPTYQPEPQVGESQWNEAEATASGGRVLKKTTPMKPCYGSYARPTNKNGGQGILVANNQGALESKVEMQFFAPSGTAMNERNAVQPSIVLYSEDVNMETPDTHISYKPSKTDENSKAMLGQQAMPNRPNYIAFRDNFIGLMYYNSTGNMGVLAGQASQLNAVVDLQDRNTELSYQLLLDSIGDRTRYFSMWNQAVDSYDPDVRIIENHGTEDELPNYCFPLGGIGVTDTYQGIKSNGNGNPQNWTKNDDFAARNEIGVGNNFALEINLNANLWRNFLYSNIALYLPDKLKYTPTNVEISPNPNSYDYMNKRVVAPGLVDCYINLGARWSLDYMDNVNPFNHHRNAGLRYRSMLLGNGRYVPFHIQVPQKFFAIKNLLLLPGSYTYEWNFRKDVNMVLQSSLGNDLRVDGASIKFDSICLYATFFPMAHNTASTLEAMLRNDTNDQSFNDYLSAANMLYPIPANATNVPISIPSRNWAAFRGWAFTRLKTKETPSLGSGYDPYYTYSGSIPYLDGTFYLNHTFKKVAITFDSSVSWPGNDRLLTPNEFEIKRSVDGEGYNVAQCNMTKDWFLVQMLANYNIGYQGFYIPESYKDRMYSFFRNFQPMSRQVVDDTKYKDYQQVGILHQHNNSGFVGYLAPTMREGQAYPANFPYPLIGKTAVDSITQKKFLCDRTLWRIPFSSNFMSMGALTDLGQNLLYANSAHALDMTFEVDPMDEPTLLYVLFEVFDVVRVHQPHRGVIETVYLRTPFSAGNATT
Kd: 5 nM

— PMC9536601 (2022)
